Measurements taken from article PMC5137418 (Nucleic Acids Research, 2016).

Molecular target: His-RNMT (human, UniProt O43148 1-476)
Assay: pull-down; 2 μg GST or GST-RAM with equimolar His-RNMT and glutathione sepharose; 50 mM Tris–Cl pH 7.5, 250 mM NaCl, 0.03% Brij-35, 1 mM DTT, 4°C, 1 h; Coomassie stain
Conditions: both partners purified

His-RNMT, sequence (O43148 whole entry): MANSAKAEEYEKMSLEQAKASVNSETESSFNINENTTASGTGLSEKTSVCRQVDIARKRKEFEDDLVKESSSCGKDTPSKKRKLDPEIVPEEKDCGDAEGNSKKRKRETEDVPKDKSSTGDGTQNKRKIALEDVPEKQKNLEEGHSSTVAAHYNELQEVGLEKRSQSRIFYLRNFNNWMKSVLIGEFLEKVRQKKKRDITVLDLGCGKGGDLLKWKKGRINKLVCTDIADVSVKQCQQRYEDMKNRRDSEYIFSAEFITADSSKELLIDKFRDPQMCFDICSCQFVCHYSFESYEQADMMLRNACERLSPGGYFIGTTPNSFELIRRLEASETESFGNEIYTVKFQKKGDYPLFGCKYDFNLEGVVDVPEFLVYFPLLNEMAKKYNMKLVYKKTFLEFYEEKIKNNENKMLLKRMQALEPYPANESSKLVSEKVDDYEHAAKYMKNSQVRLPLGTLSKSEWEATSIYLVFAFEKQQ

TDTAEAVPKFEEMFASRFTENDKEYQEYLKRPPESPPIVEEWNS (domain or fragment, human, UniProt Q9BTL3 2-45, looked up) [GST-RAM 2–45]: binds.
